Reference: US6084068, “Elongin A and C functional domains” (Oklahoma Medical Research Foundation, dated 2000)

B1: wild type Elongin A (other)
chain: MAAESALQVVEKLQARLAANPDPKKLLKYLKKLSVLPITVDILVETGVGKTVNSFRKHEQVGNFARDLVAQWKKLVPVERNNEAEDQDFEKSNSRKRPRDVPQQEEEAEGNYQESWQASGSQPYSPEHRQKKHRKLPELERPHKVAHGHERRDERKRCHKVSPPYSSDPESSDYGHVQSPPPSSPHQMYTDLSRSPEMDQEPIVSHPKPGKVHSNTFQDRLGVSHLGEHQGKGAVSQNKPHKSSHKEKRPVDARGDEKSSVMGREKSHKASSKEESRRLLSEDSAKEKLPSSVVKKEKDREGNSLKKKLSPALDVASDNHFKKPKHKDSEKIKSDKNKQSVDSVDSGRGTGDPLPRAKDKVPNNLKAQEGKVRTNSDRKSPGSLPKVEEMDMDDEFEQPTMSFESYLSYDQPRKKKKKVVKTSGTALGEKGLKKKDSKSTSKNLNSAQKLPKANENKSDKLQPAGAEPTRPRKVPTDVLPALPDIPLPAIQTNYRPLPSLELISSFQPKRKAFSSPQEEEEAGFTGRRMNSKMQVYSGSKCAYLPKMMTLHQQCIRVLKNNIDSIFEVGGVPYSVLEPVLERCTPDQLYRIEECNHVLIEETDQLWKVHCHRDFKEERPEEYESWREMYLRLQDAREQRLRLLTNNIRSAHANKPKGRQAKMAFVNSVAKPPRDVRRRQEKFGTGGAAVPEKVRIKPAPYTTGSSHVPASNSSSSFHSSPEELAYEGPSTSSAHLAPVASSSVSYDPRKPAVKKIAPMMAKTIKAFKNRFSRR
B2: Elongin A internal deletion mutant Δ566-585 (other)
chain: MAAESALQVVEKLQARLAANPDPKKLLKYLKKLSVLPITVDILVETGVGKTVNSFRKHEQVGNFARDLVAQWKKLVPVERNNEAEDQDFEKSNSRKRPRDVPQQEEEAEGNYQESWQASGSQPYSPEHRQKKHRKLPELERPHKVAHGHERRDERKRCHKVSPPYSSDPESSDYGHVQSPPPSSPHQMYTDLSRSPEMDQEPIVSHPKPGKVHSNTFQDRLGVSHLGEHQGKGAVSQNKPHKSSHKEKRPVDARGDEKSSVMGREKSHKASSKEESRRLLSEDSAKEKLPSSVVKKEKDREGNSLKKKLSPALDVASDNHFKKPKHKDSEKIKSDKNKQSVDSVDSGRGTGDPLPRAKDKVPNNLKAQEGKVRTNSDRKSPGSLPKVEEMDMDDEFEQPTMSFESYLSYDQPRKKKKKVVKTSGTALGEKGLKKKDSKSTSKNLNSAQKLPKANENKSDKLQPAGAEPTRPRKVPTDVLPALPDIPLPAIQTNYRPLPSLELISSFQPKRKAFSSPQEEEEAGFTGRRMNSKMQVYSGSKCAYLPKMMTLHQQCIRVLKNNIDSIDQLYRIEECNHVLIEETDQLWKVHCHRDFKEERPEEYESWREMYLRLQDAREQRLRLLTNNIRSAHANKPKGRQAKMAFVNSVAKPPRDVRRRQEKFGTGGAAVPEKVRIKPAPYTTGSSHVPASNSSSSFHSSPEELAYEGPSTSSAHLAPVASSSVSYDPRKPAVKKIAPMMAKTIKAFKNRFSRR
B3: Elongin A internal deletion mutant Δ586-610 (other)
chain: MAAESALQVVEKLQARLAANPDPKKLLKYLKKLSVLPITVDILVETGVGKTVNSFRKHEQVGNFARDLVAQWKKLVPVERNNEAEDQDFEKSNSRKRPRDVPQQEEEAEGNYQESWQASGSQPYSPEHRQKKHRKLPELERPHKVAHGHERRDERKRCHKVSPPYSSDPESSDYGHVQSPPPSSPHQMYTDLSRSPEMDQEPIVSHPKPGKVHSNTFQDRLGVSHLGEHQGKGAVSQNKPHKSSHKEKRPVDARGDEKSSVMGREKSHKASSKEESRRLLSEDSAKEKLPSSVVKKEKDREGNSLKKKLSPALDVASDNHFKKPKHKDSEKIKSDKNKQSVDSVDSGRGTGDPLPRAKDKVPNNLKAQEGKVRTNSDRKSPGSLPKVEEMDMDDEFEQPTMSFESYLSYDQPRKKKKKVVKTSGTALGEKGLKKKDSKSTSKNLNSAQKLPKANENKSDKLQPAGAEPTRPRKVPTDVLPALPDIPLPAIQTNYRPLPSLELISSFQPKRKAFSSPQEEEEAGFTGRRMNSKMQVYSGSKCAYLPKMMTLHQQCIRVLKNNIDSIFEVGGVPYSVLEPVLERCTPHRDFKEERPEEYESWREMYLRLQDAREQRLRLLTNNIRSAHANKPKGRQAKMAFVNSVAKPPRDVRRRQEKFGTGGAAVPEKVRIKPAPYTTGSSHVPASNSSSSFHSSPEELAYEGPSTSSAHLAPVASSSVSYDPRKPAVKKIAPMMAKTIKAFKNRFSRR
B4: Elongin A internal deletion mutant Δ611-650 (other)
chain: MAAESALQVVEKLQARLAANPDPKKLLKYLKKLSVLPITVDILVETGVGKTVNSFRKHEQVGNFARDLVAQWKKLVPVERNNEAEDQDFEKSNSRKRPRDVPQQEEEAEGNYQESWQASGSQPYSPEHRQKKHRKLPELERPHKVAHGHERRDERKRCHKVSPPYSSDPESSDYGHVQSPPPSSPHQMYTDLSRSPEMDQEPIVSHPKPGKVHSNTFQDRLGVSHLGEHQGKGAVSQNKPHKSSHKEKRPVDARGDEKSSVMGREKSHKASSKEESRRLLSEDSAKEKLPSSVVKKEKDREGNSLKKKLSPALDVASDNHFKKPKHKDSEKIKSDKNKQSVDSVDSGRGTGDPLPRAKDKVPNNLKAQEGKVRTNSDRKSPGSLPKVEEMDMDDEFEQPTMSFESYLSYDQPRKKKKKVVKTSGTALGEKGLKKKDSKSTSKNLNSAQKLPKANENKSDKLQPAGAEPTRPRKVPTDVLPALPDIPLPAIQTNYRPLPSLELISSFQPKRKAFSSPQEEEEAGFTGRRMNSKMQVYSGSKCAYLPKMMTLHQQCIRVLKNNIDSIFEVGGVPYSVLEPVLERCTPDQLYRIEECNHVLIEETDQLWKVHCHANKPKGRQAKMAFVNSVAKPPRDVRRRQEKFGTGGAAVPEKVRIKPAPYTTGSSHVPASNSSSSFHSSPEELAYEGPSTSSAHLAPVASSSVSYDPRKPAVKKIAPMMAKTIKAFKNRFSRR
B5: Elongin A internal deletion mutant Δ651-690 (other)
chain: MAAESALQVVEKLQARLAANPDPKKLLKYLKKLSVLPITVDILVETGVGKTVNSFRKHEQVGNFARDLVAQWKKLVPVERNNEAEDQDFEKSNSRKRPRDVPQQEEEAEGNYQESWQASGSQPYSPEHRQKKHRKLPELERPHKVAHGHERRDERKRCHKVSPPYSSDPESSDYGHVQSPPPSSPHQMYTDLSRSPEMDQEPIVSHPKPGKVHSNTFQDRLGVSHLGEHQGKGAVSQNKPHKSSHKEKRPVDARGDEKSSVMGREKSHKASSKEESRRLLSEDSAKEKLPSSVVKKEKDREGNSLKKKLSPALDVASDNHFKKPKHKDSEKIKSDKNKQSVDSVDSGRGTGDPLPRAKDKVPNNLKAQEGKVRTNSDRKSPGSLPKVEEMDMDDEFEQPTMSFESYLSYDQPRKKKKKVVKTSGTALGEKGLKKKDSKSTSKNLNSAQKLPKANENKSDKLQPAGAEPTRPRKVPTDVLPALPDIPLPAIQTNYRPLPSLELISSFQPKRKAFSSPQEEEEAGFTGRRMNSKMQVYSGSKCAYLPKMMTLHQQCIRVLKNNIDSIFEVGGVPYSVLEPVLERCTPDQLYRIEECNHVLIEETDQLWKVHCHRDFKEERPEEYESWREMYLRLQDAREQRLRLLTNNIRSAEKVRIKPAPYTTGSSHVPASNSSSSFHSSPEELAYEGPSTSSAHLAPVASSSVSYDPRKPAVKKIAPMMAKTIKAFKNRFSRR

Biological target: T1, Elongin BC complex (wild type rat Elongin B and C) (rat, UniProt P62870)
T1 chain 1: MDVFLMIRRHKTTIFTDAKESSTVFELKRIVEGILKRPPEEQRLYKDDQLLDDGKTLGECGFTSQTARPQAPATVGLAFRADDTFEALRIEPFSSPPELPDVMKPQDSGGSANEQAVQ
T1 chain 2: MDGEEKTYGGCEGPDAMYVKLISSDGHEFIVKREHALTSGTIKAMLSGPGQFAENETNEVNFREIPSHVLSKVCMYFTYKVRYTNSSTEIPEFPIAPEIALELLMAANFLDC
Test: refolded with wild type Elongin B and C; TSK SP-NPR HPLC, SDS-PAGE, silver staining

Binding result, binds:
B1
B2
B3
B4
B5
